Earlier results in article PMC4567495.

Key:
[1] = molecular target: cardiac troponin I switch peptide (Homo sapiens) (UniProt P19429); assay: NMR
[2] = molecular target: cardiac troponin I switch peptide 147-163 (Homo sapiens) (UniProt P19429); assay: NMR

cardiac troponin I switch peptide (Homo sapiens), sequence (P19429 2-210): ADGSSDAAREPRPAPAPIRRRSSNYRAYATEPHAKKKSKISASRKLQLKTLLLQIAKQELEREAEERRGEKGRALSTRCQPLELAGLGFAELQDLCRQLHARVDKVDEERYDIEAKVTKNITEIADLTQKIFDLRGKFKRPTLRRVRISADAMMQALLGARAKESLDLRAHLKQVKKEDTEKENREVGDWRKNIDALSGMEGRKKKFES

- Kd [1]: > 2000 µM
- Kd [2]: 150 µM
Substance: cardiac troponin C N-domain (from UniProt P63316)
